To fix the notation:
B1: v23657 (bispecific antibody, human IgG1, kappa, L234A L235A)
heavy 1: QVQLKQSGPGLVQPSQSLSITCTVSGFSLTSYGVHWVRQSPGKGLEWLGVIWSGGSTDYNAAFISRLSISKDNSKSQVFFKMNSLQADDTAIYYCARNPLTATVMDYWGQGTSVTVSSASTKGPSVFPLAPSSKSTSGGTAALGCLVKDYFPEPVTVSWNSGALTSGVHTFPAVLQSSGLYSLSSVVTVPSSSLGTQTYICNVNHKPSNTKVDKKVEPKSCDKTHTCPPCPAPEAAGGPSVFLFPPKPKDTLMISRTPEVTCVVVSVSHEDPEVKFNWYVDGVEVHNAKTKPREEQYNSTYRVVSVLTVLHQDWLNGKEYKCKVSNKALPAPIEKTISKAKGQPREPQVYVYPPSRDELTKNQVSLTCLVKGFYPSDIAVEWESNGQPENNYKTTPPVLDSDGSFALVSKLTVDKSRWQQGNVFSCSVMHEALHNHYTQKSLSLSPGGGGGDIVMTQTPASVEAAVGGTVTIKCQASQSIYSSLAWYQQKPGQSPKLLIYDASHLASGVPSRFSGSRYGTEFTLTISGVQCDDAATYYCQGGWYSSAATYVPNTFGGGTEVVVKGGGGSGGGGSGGGGSQEQLVESGGGLVQPEGSLTLTCKASGFTISNNYYMCWVRQAPGKGLEWIACIYGGISGRTYYASWAKGRFTISKTSSTTVTLQMTSLTAADTATYFCVRGYVGTSNLWGPGTLVTVSS
heavy 2: QVQLKQSGPGLVQPSQSLSITCTVSGFSLTSYGVHWVRQSPGKGLEWLGVIWSGGSTDYNAAFISRLSISKDNSKSQVFFKMNSLQADDTAIYYCARNPLTATVMDYWGQGTSVTVSSASTKGPSVFPLAPSSKSTSGGTAALGCLVKDYFPEPVTVSWNSGALTSGVHTFPAVLQSSGLYSLSSVVTVPSSSLGTQTYICNVNHKPSNTKVDKKVEPKSCDKTHTCPPCPAPEAAGGPSVFLFPPKPKDTLMISRTPEVTCVVVSVSHEDPEVKFNWYVDGVEVHNAKTKPREEQYNSTYRVVSVLTVLHQDWLNGKEYKCKVSNKALPAPIEKTISKAKGQPREPQVYVLPPSRDELTKNQVSLLCLVKGFYPSDIAVEWESNGQPENNYLTWPPVLDSDGSFFLYSKLTVDKSRWQQGNVFSCSVMHEALHNHYTQKSLSLSPG
light: DIVMTQSQKFMSTSVGDRVSVTCKASQNVGTNVAWYQQKPGQSRTVLIYSASYRHSGVPDRFTGSGSGTDFTLTISNVQSEDLAEYFCQQYNSYPLTFGTGTKLELKRTVAAPSVFIFPPSDEQLKSGTASVVCLLNNFYPREAKVQWKVDNALQSGNSQESVTEQDSKDSTYSLSSTLTLSKADYEKHKVYACEVTHQGLSSPVTKSFNRGEC
notes: also called 2E8 x 8K22 (VLVH) 2x1
B2: v23659 (bispecific antibody, human IgG1, kappa, L234A L235A)
heavy 1: B1 heavy 1 with K5Q, Q6E, S15T, T30I
heavy 2: B1 heavy 2 with K5Q, Q6E, S15T, T30I
light: B1 light with R44P, T45K, V46A, H55D, F87L, T100A
notes: also called 5G8 x 8K22 (VLVH) 2x1
B3: v23664 (bispecific antibody, human IgG1, kappa, L234A L235A)
heavy 1: QVQLQESGPGLVQPTQSLSITCTVSGFSLISYGVHWVRQSPGKGLEWLGVIWSGGSTDYNAAFISRLSISKDNSKSQVFFKMNSLQADDTAIYYCARNPLTATVMDYWGQGTSVTVSSASTKGPSVFPLAPSSKSTSGGTAALGCLVKDYFPEPVTVSWNSGALTSGVHTFPAVLQSSGLYSLSSVVTVPSSSLGTQTYICNVNHKPSNTKVDKKVEPKSCDKTHTCPPCPAPEAAGGPSVFLFPPKPKDTLMISRTPEVTCVVVSVSHEDPEVKFNWYVDGVEVHNAKTKPREEQYNSTYRVVSVLTVLHQDWLNGKEYKCKVSNKALPAPIEKTISKAKGQPREPQVYVYPPSRDELTKNQVSLTCLVKGFYPSDIAVEWESNGQPENNYKTTPPVLDSDGSFALVSKLTVDKSRWQQGNVFSCSVMHEALHNHYTQKSLSLSPGGGGGDIVMTQTPSSVSAAVGGTVTIKCQASQTIGSSLAWYQQKPGQPPKLLIYRASTLASGVSSRFRGSGSGTEYTLTISDLECADAATYYCQWTDYGYIYIWAFGGGTEVVVKGGGGSGGGGSGGGGSQEQLVESGGGLVQPEGSLTLTCTASKFSFSSLYYMCWVRQAPGKGLEWIACVYGGSSGNTYYASWAKGRFTISKASSTTVTLQLTSLTAADTATYFCARFDVDGSGFNLWGPGTLVTVSS
heavy 2: B1 heavy 2 with K5Q, Q6E, S15T, T30I
light: B1 light with R44P, T45K, V46A, H55D, F87L, T100A
notes: also called 5G8 x 1H06 (VLVH) 2x1
B4: v23658 (bispecific antibody, human IgG1, kappa, L234A L235A)
heavy 1: QVQLKESGPGLVAPSQSLSITCTVSGFSLTSYAINWVRQPPGKGLEWLGVLWPGGGTNYNSALKSRLSISKDNSKSQVFLKMNSLQTDDTARYYCARGSGTWYFDVWGAGTTVTVSSASTKGPSVFPLAPSSKSTSGGTAALGCLVKDYFPEPVTVSWNSGALTSGVHTFPAVLQSSGLYSLSSVVTVPSSSLGTQTYICNVNHKPSNTKVDKKVEPKSCDKTHTCPPCPAPEAAGGPSVFLFPPKPKDTLMISRTPEVTCVVVSVSHEDPEVKFNWYVDGVEVHNAKTKPREEQYNSTYRVVSVLTVLHQDWLNGKEYKCKVSNKALPAPIEKTISKAKGQPREPQVYVYPPSRDELTKNQVSLTCLVKGFYPSDIAVEWESNGQPENNYKTTPPVLDSDGSFALVSKLTVDKSRWQQGNVFSCSVMHEALHNHYTQKSLSLSPGGGGGDIVMTQTPASVEAAVGGTVTIKCQASQSIYSSLAWYQQKPGQSPKLLIYDASHLASGVPSRFSGSRYGTEFTLTISGVQCDDAATYYCQGGWYSSAATYVPNTFGGGTEVVVKGGGGSGGGGSGGGGSQEQLVESGGGLVQPEGSLTLTCKASGFTISNNYYMCWVRQAPGKGLEWIACIYGGISGRTYYASWAKGRFTISKTSSTTVTLQMTSLTAADTATYFCVRGYVGTSNLWGPGTLVTVSS
heavy 2: QVQLKESGPGLVAPSQSLSITCTVSGFSLTSYAINWVRQPPGKGLEWLGVLWPGGGTNYNSALKSRLSISKDNSKSQVFLKMNSLQTDDTARYYCARGSGTWYFDVWGAGTTVTVSSASTKGPSVFPLAPSSKSTSGGTAALGCLVKDYFPEPVTVSWNSGALTSGVHTFPAVLQSSGLYSLSSVVTVPSSSLGTQTYICNVNHKPSNTKVDKKVEPKSCDKTHTCPPCPAPEAAGGPSVFLFPPKPKDTLMISRTPEVTCVVVSVSHEDPEVKFNWYVDGVEVHNAKTKPREEQYNSTYRVVSVLTVLHQDWLNGKEYKCKVSNKALPAPIEKTISKAKGQPREPQVYVLPPSRDELTKNQVSLLCLVKGFYPSDIAVEWESNGQPENNYLTWPPVLDSDGSFFLYSKLTVDKSRWQQGNVFSCSVMHEALHNHYTQKSLSLSPG
light: DIQMTQTTSSLSASLGDRVTFSCSASQGISNYLNWYQQKPDGTVKLLIYYTSSLHLGVPSRFSGSGSGTDYSLTISNLEPEDIATYYCQQYSKLPWTFGGGTKLEIKRTVAAPSVFIFPPSDEQLKSGTASVVCLLNNFYPREAKVQWKVDNALQSGNSQESVTEQDSKDSTYSLSSTLTLSKADYEKHKVYACEVTHQGLSSPVTKSFNRGEC
notes: also called 4E6 x 8K22 (VLVH) 2x1
B5: v23665 (bispecific antibody, human IgG1, kappa, L234A L235A)
heavy 1: QVQLKESGPGLVAPSQSLSITCTVSGFSLTSYAISWVRQPPGKGLEWLGVIWPGGGTNYNSALKSRLSISKDNSKSQVFLKMNSLQTDDTARYYCARGTGTWYFDVWGAGTTVTVSSASTKGPSVFPLAPSSKSTSGGTAALGCLVKDYFPEPVTVSWNSGALTSGVHTFPAVLQSSGLYSLSSVVTVPSSSLGTQTYICNVNHKPSNTKVDKKVEPKSCDKTHTCPPCPAPEAAGGPSVFLFPPKPKDTLMISRTPEVTCVVVSVSHEDPEVKFNWYVDGVEVHNAKTKPREEQYNSTYRVVSVLTVLHQDWLNGKEYKCKVSNKALPAPIEKTISKAKGQPREPQVYVYPPSRDELTKNQVSLTCLVKGFYPSDIAVEWESNGQPENNYKTTPPVLDSDGSFALVSKLTVDKSRWQQGNVFSCSVMHEALHNHYTQKSLSLSPGGGGGDIVMTQTPSSVSAAVGGTVTIKCQASQTIGSSLAWYQQKPGQPPKLLIYRASTLASGVSSRFRGSGSGTEYTLTISDLECADAATYYCQWTDYGYIYIWAFGGGTEVVVKGGGGSGGGGSGGGGSQEQLVESGGGLVQPEGSLTLTCTASKFSFSSLYYMCWVRQAPGKGLEWIACVYGGSSGNTYYASWAKGRFTISKASSTTVTLQLTSLTAADTATYFCARFDVDGSGFNLWGPGTLVTVSS
heavy 2: B4 heavy 2 with N35S, L51I, S99T
light: B4 light with F21I, L56S, K93D
notes: also called 6B3 x 1H06 (VLVH) 2x1
B6: v23663 (bispecific antibody, human IgG1, kappa, L234A L235A)
heavy 1: B5 heavy 1 with S35N, I51L, T99S
heavy 2: B4 heavy 2
light: B4 light
notes: also called 4E6 x 1H06 (VLVH) 2x1
B7: v23661 (bispecific antibody, human IgG1, kappa, L234A L235A)
heavy 1: B5 heavy 1 with S31T, V50I, K75R, T99A
heavy 2: B4 heavy 2 with S31T, N35S, V50I, L51I, K75R, S99A
light: B4 light with T7S, L15V, F21I, L56S, L94F
notes: also called 1C8 x 1H06 (VLVH) 2x1

Substitutions are numbered along the chain they refer to.

From patent US20230052369A1 (Zymeworks, published 2023) come the findings set out here.

T1 sequence (Q07011 other isoform, or with tags, fused parts or gaps limits assumed): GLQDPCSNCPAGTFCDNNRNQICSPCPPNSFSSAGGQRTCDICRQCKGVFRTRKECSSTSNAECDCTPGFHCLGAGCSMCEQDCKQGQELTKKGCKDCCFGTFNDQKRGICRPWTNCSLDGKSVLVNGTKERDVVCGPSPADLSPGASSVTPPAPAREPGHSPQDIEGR
T2 sequence (P15328 25-234 limits assumed): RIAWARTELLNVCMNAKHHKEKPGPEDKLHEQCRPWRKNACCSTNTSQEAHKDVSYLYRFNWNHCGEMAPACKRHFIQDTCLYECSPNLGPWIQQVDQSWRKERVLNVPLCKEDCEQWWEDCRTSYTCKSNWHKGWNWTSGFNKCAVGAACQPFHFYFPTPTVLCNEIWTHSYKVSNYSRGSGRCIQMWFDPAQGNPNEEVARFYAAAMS

One assay concerns the target T1, purified human monomeric 4-1BB (human, UniProt Q07011 24-186).
T1 construct: the assay used the 4-1BB part released by Factor Xa with the Fc removed; also called h4-1BB; human 4-1BB
Kind of assay: SPR, Ab captured, monomeric 4-1BB injected. Background: Surface plasmon resonance follows binding to a sensor surface in real time, without labels.
Experimental: The anti-human Fc surface was prepared on a CMS Series S sensorchip by standard amine coupling methods as described by the manufacturer (GE Healthcare). Briefly, immediately after EDC/NHS activation, a 25 μg/mL solution of anti-human Fc in 10 mM NaOAc pH 4.5 was injected at a flow rate of 10 μL/min for 420 s until approximately 2000 resonance units (RUs) were immobilized on all four flow cells. The remaining active groups were quenched by a 420 s injection of 1M ethanolamine at 10 μL/min.
Antibodies for analysis were captured onto the anti-Fc surface by injecting 5 μg/mL solutions at a flow rate of 10 μL/min for 60 s. Using single-cycle kinetics, five concentrations of a two-fold dilution series of 4-1BB starting at 40 nM (for both supernatant and purified antibody runs) with a blank buffer control were sequentially injected at 40 μL/min for 180 s with a 600 s dissociation phase, resulting in a set of sensorgrams with a buffer blank reference. Experiments were performed at a constant temperature of 25° C. The anti-human Fc surfaces were regenerated to prepare for the next injection cycle by one pulse of 10 mM Glycine/HCl pH 1.5 for 120 s at 40 μL/min. Blank-subtracted sensorgrams were analyzed using Biacore™ T200 Evaluation Software v3.0. The blank-subtracted sensorgrams were then fit to the 1:1 Langmuir binding model.
Variants purified by SEC were assessed for binding to human 4-1BB.
B1: binding was put at a Kd of 175 nM.
B2 came in with a Kd of 208 nM.
B3 had a dissociation constant (Kd) of 220 nM.
In the case of B4, the affinity, expressed as Kd, was 499 nM.
On to B5, for which the Kd was determined as 464 nM.
In the case of B6, binding was put at a Kd of 502 nM.
Still for that read-out and setting: to B7 belongs 535 nM.

Another assay concerns the target T2, full-length human FRα, on 293E cells (human, UniProt P15328 25-234).
T2 construct: also called folate receptor alpha; FOLR1
The experiment in a line: flow cytometry, 293E cells expressing FRα. (Flow cytometry measures light scatter and fluorescence of single cells or particles in a stream.)
Experimental: Antibodies were diluted in 50 μl FB (PBS 2% FCS) 1:3 from stock in wells of a 96 V-well plate, and cells added on top. The cells were then left on ice for 30 minutes for the antibodies to bind. The cells were then washed twice in FB, and incubated in 50 μl FB containing 2 μg/ml goat anti-human Alexa647 antibody (Jackson Immunoresearch). The cells were then left on ice for a further 20 minutes, washed twice in FB, resuspended in 100 μl FB and analyzed on a BD Fortessa™ X20. The subsequent data files were analyzed using FlowJo™ and Prism 7 (GraphPad).
For the molecule B1, the binding result is given as “binds”.
B2: the binding result was “binds”.
For B3, the binding result is listed as “binds”.
B4: the binding result was “binds”.
B5: the binding result was “binds”.
As to B6, the binding result is given as “binds”.
Turning to B7, the binding result is “binds”.

In general, Kd refers to the concentration at which binding is half-saturated. Read a high Kd as weaker binding.
